# Test results taken from patent US20060148057.
# B1: Flag-tagged Trx-WT (protein)
# chain: MVKQIESKTAFQEALDAAGDKLVVVDFSATWCGPCKMIKPFFHSLSEKYSNVIFLEVDVDDCQDVASECEVKCMPTFQFFKKGQKVGEFSGANKEKLEATINELV
# B2: HA-tagged ASK1-WT (protein)
# chain: MSTEADEGITFSVPPFAPSGFCTIPEGGICRRGGAAAVGEGEEHQLPPPPPGSFWNVESAAAPGIGCPAATSSSSATRGRGSSVGGGSRRTTVAYVINEASQGQLVVAESEALQSLREACETVGATLETLHFGKLDFGETTVLDRFYNADIAVVEMSDAFRQPSLFYHLGVRESFSMANNIILYCDTNSDSLQSLKEIICQKNTMCTGNYTFVPYMITPHNKVYCCDSSFMKGLTELMQPNFELLLGPICLPLVDRFIQLLKVAQASSSQYFRESILNDIRKARNLYTGKELAAELARIRQRVDNIEVLTADIVINLLLSYRDIQDYDSIVKLVETLEKLPTFDLASHHHVKFHYAFALNRRNLPGDRAKALDIMIPMVQSEGQVASDMYCLVGRIYKDMFLDSNFTDTESRDHGASWFKKAFESEPTLQSGINYAVLLLAAGHQFESSFELRKVGVKLSSLLGKKGNLEKLQSYWEVGFFLGASVLANDHMRVIQASEKLFKLKTPAWYLKSIVETILIYKHFVKLTTEQPVAKQELVDFWMDFLVEATKTDVTVVRFPVLILEPTKIYQPSYLSINNEVEEKTISIWHVLPDDKKGIHEWNFSASSVRGVSISKFEERCCFLYVLHNSDDFQIYFCTELHCKKFFEMVNTITEEKGRSTEEGDCESDLLEYDYEYDENGDRVVLGKGTYGIVYAGRDLSNQVRIAIKEIPERDSRYSQPLHEEIALHKHLKHKNIVQYLGSFSENGFIKIFMEQVPGGSLSALLRSKWGPLKDNEQTIGFYTKQILEGLKYLHDNQIVHRDIKGDNVLINTYSGVLKISDFGTSKRLAGINPCTETFTGTLQYMAPEIIDKGPRGYGKAADIWSLGCTIIEMATGKPPFYELGEPQAAMFKVGMFKVHPEIPESMSAEAKAFILKCFEPDPDKRACANDLLVDEFLKVSSKKKKTQPKLSALSAGSNEYLRSISLPVPVLVEDTSSSSEYGSVSPDTELKVDPFSFKTRAKSCGERDVKGIRTLFLGIPDENFEDHSAPPSPEEKDSGFFMLRKDSERRATLHRILTEDQDKIVRNLMESLAQGAEEPKLKWEHITTLIASLREFVRSTDRKIIATTLSKLKLELDFDSHGISQVQVVLFGFQDAVNKVLRNHNIKPHWMFALDSIIRKAVQTAITILVPELRPHFSLASESDTADQEDLDVEDDHEEQPSNQTVRRPQAVIEDAVATSGVSTLSSTVSHDSQSAHRSLNVQLGRMKIETNRLLEELVRKEKELQALLHRAIEEKDQEIKHLKLKSQPIEIPELPVFHLNSSGTNTEDSELTDWLRVNGADEDTISRFLAEDYTLLDVLYYVTRDDLKCLRLRGGMLCTLWKAIIDFRNKQT
# Tests used:
# [1] = target: endogenous ASK1 of bovine aorta endothelial cells (BAEC), A0AAA9
# [2] = target: GST-SOCS3 (full-length) [GST: P08515]
# [3] = target: GST-SOCS3-DC (1-138aa, deletion of the C-terminal SOCS box) [GST: P08515]
# [4] = target: GST-SOCS3-N (1-45aa) [GST: P08515]
Protein,"ASK1 ubiquitination and degradation (Western blot; IP anti-ASK1, blot anti-Ub) [1]","ASK1 ubiquitination and degradation (Western blot with anti-Flag) (Flag-ASK1-ΔN, Q99683)",phosphorylation in an in vitro kinase assay [2],phosphorylation in an in vitro kinase assay [3],phosphorylation in an in vitro kinase assay [4]
B1,Trx expression significantly increased ASK1 ubiquitination,"expression of Trx did not induce ubiquitination and degradation of ASK1 -ΔN, a mutant ASK1 lacking the N-terminal Trx-binding domain",,,
B2,,,only the full-length GST-SOCS3 was phosphorylated by ASK1,only the full-length GST-SOCS3 was phosphorylated by ASK1,only the full-length GST-SOCS3 was phosphorylated by ASK1
